# Laboratory results as given in patent publication US20140087991A1, “PEPTIDE PRODRUGS” (The Johns Hopkins University, priority 2006, published 2014).
# Experiments:
# Format in all cases: biochemical
# FAP [1] = biological target: T1, FAP (Homo sapiens, UniProt Q12884); assay: FAP gelatinase and collagenase assay with quenched (DQ) proteins
# T1 construct: the extracellular domain of FAP was cloned with a His-6 tag; made in house
# T1 sequence (Q12884 26-760 limits assumed): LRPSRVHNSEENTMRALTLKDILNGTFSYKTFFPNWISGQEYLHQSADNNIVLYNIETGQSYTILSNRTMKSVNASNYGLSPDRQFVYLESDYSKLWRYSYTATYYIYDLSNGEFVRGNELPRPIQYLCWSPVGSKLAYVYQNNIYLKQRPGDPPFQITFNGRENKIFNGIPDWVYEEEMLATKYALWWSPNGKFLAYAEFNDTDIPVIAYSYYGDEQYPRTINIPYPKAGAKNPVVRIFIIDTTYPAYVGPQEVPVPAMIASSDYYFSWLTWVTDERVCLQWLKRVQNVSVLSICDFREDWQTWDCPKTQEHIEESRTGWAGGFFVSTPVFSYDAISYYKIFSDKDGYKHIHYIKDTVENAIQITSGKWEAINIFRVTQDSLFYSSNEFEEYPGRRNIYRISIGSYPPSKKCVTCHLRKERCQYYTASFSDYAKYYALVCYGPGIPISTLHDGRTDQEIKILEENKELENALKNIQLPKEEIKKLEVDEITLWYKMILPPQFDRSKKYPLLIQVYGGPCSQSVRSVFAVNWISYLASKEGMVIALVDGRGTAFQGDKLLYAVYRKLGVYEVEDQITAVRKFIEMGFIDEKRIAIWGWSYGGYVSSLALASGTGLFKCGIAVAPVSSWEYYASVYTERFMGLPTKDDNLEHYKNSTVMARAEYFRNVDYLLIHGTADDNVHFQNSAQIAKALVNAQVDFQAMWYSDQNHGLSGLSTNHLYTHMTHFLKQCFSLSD
# Description: Quenched gelatin and collagen conjugates were used to detect and confirm FAP's gelatinase and collagenase activity. DQ™ Gelatin from pig skin, DQ™ collagen, type IV from human placenta, DQ™ collagen, type I from bovine skin, all as fluorescent conjugates (Invitrogen, Rockville, Md.) were digested with FAP and digestion monitored on a fluorescence plate reader. Protein substrates were dissolved in reaction buffer (100 mM NaCl, 100 mM Tris, pH 7.8) to a final concentration of 100 μgs/ml. Trypsin digestion was used as a positive control. As a negative control the His tagged extra cellular domain of Prostate Specific Membrane Antigen (PSMA), which was similarly purified from S2 cells under the same conditions as FAP. Fluorescent quenched DQ™ Bovine Serum Albumin was used as a negative control for FAP protease activity.
# Quenched forms of Gelatin and Collagen were used to confirm the gelatinase and collagenase activity of recombinant FAP. Quenching is achieved by labeling these proteins with the fluorophore FITC such that fluorescence signal from the intact protein is minimal due to is self-quenching by the fluorphore. Protein digestion releases FITC-labeled fragments that result in measurable increase in overall fluorescence signal from the reaction mixture. […] On a relative basis gelatin was digested ˜10-fold better by FAP than collagen I. MALDI analysis of digested fragments was performed to confirm hydrolysis.
# FAP [2] = biological target: T1, FAP; assay: LC-MS/MS cleavage map of FAP digest of 8.5 kDa recombinant human gelatin; details: 8.5 kDa gelatin digest; for Normalized Ion Current: peak with lowest ion current assigned 1.0
# Description: (§1) Human collagen I (Becton Dickinson, Franklin Lakes, N.J.) and recombinant human gelatins of 100 KDa and 8.5 KDa (Fibrogen, San Francisco, Calif.) were dissolved in reaction buffer to a final concentration of 100-300 μg/ml. 0.5-1 μg of FAP was added per 100 μgs of protein substrate. Digestion was done for 4-6 hrs at 37° C. As a positive control trypsin digestion was used. As a negative control, protein solutions were incubated either with BSA or buffer only. Peptide fragments of a size <30 KDa were purified using 30 KDa Microcon spin filter (Millipore, Billerica, Mass.).
# (§2) Peptides obtained from FAP/gelatin digests were dried using a speedvac (Eppendorf), resuspended in LC/MS loading buffer (3% ACN, 0.1% formic acid), and analyzed using nano-flow LC/MS/MS on an Agilent 1100 series nano-LC system (Agilent) coupled to an LCQ Duo ion trap mass spectrometer (ThermoFinnigan). Peptides were pre-concentrated on a 5 mm Zorbax C18 trap column (Agilent) and then eluted onto a 100×0.075 mm custom-packed Biobasic C18 (ThermoElectron) reversed phase capillary column connected to a laser-pulled electrospray ionization emitter tip (New Objective) at a flowrate of 300 nl/min Peptides were eluted the nanospray source of the LCQ (Proxeon, Denmark) using the following gradient: 0% B at 0 min, 5% B at 8 min, 45% B at 50 min, 90% B at 55 min, 90% B at 60 min (B=0.1% formic acid in acetonitrile) at a spray voltage of 2.5 kV. The LCQ was operated in data-dependent mode using the Xcalibur software (ThermoFinnigan) in which every MS scan (400-1800 m/z) was followed by MS/MS scans (400-1800 m/z) on the 3 most intense ions using an isolation window of ±1.5 Da. Ions selected for MS/MS fragmentation were dynamically excluded for 30 s.
# (§3) MS/MS data were searched against a collagen FASTA database using the SEQUEST search algorithm built into the Bioworks Browser (ThermoFinnigan) allowing for the variable modification of Methionine oxidation. Peptides were initially filtered in a charge dependent manner using an XCorr filter of 1.5, 2, and 2.5 for singly, doubly, and triply charged peptides. All MS/MS spectra used to identify peptides were manually inspected for validation of y and b-ion series. To quantify the relative abundance of each identified peptide we compared the ion current for each of the observed peptide parent ions from the MS spectra. The contribution of each parent ion to the total ion current was extracted and integrated over the peptide elution peak.
# As Collagen I and Gelatin are currently the only known protein substrates for FAP, we needed to develop an alternative method to identify FAP-selective cleavage sites within these proteins. […] The masses of fragments <3 KDa were purified for MALDI spectra and again analyzed by FindPept tool. […]
# FAP [3] = biological target: T1, FAP; assay: LC-MS/MS cleavage map of FAP digest of 100 kDa recombinant human gelatin; details: 100 kDa gelatin digest; for Percentage: share of all occurrences
# Description: as §1, §2, §3
# To resolve each particular mass fragment a Liquid Chromatograpy (LC) and Tandem mass spectroscopy (MS-MS) [LC-MS-MS] method was developed. Using this method, peptide fragments from FAP digests of the 8.5 kDa and 100 kDa recombinant gelatin were time-resolved by nano reverse phase LC (FIGS. 12 and 14) and then sequenced using an ion trap mass spectrometer operating in MS/MS mode. Initial methodological issues were worked out using the 8.5 kDa fragment before analyzing the entire 100 kDa protein. MS/MS spectra were searched against the 8.5 kDa and 100 kDa gelatin sequences using the SEQUEST algorithm with no cleavage specificity. Most of the identified cleavage sites in both sized gelatins occurred after Proline. However, FAP cleavage sites in these gelatins were not restricted to Proline alone. FAP was also found to cleave after Ala (e.g. A/A, A/G, A/P, A/R), Asp (e.g. D/G, D/T), Gly (e.g. G/A, G/E, G/L, G/Q, G/P, G/V), Glu (i.e., E/P), Lys (i.e., K/A, K/G), Ser (e.g. S/P) and Val (e.g. V/G).
# To identify the most preferentially cleaved sites, we relatively quantified the abundance of each of the identified peptides by integrating the ion current generated by each peptide throughout the chromatogram. After identification of a peptide from a MS/MS spectrum, we extracted the ion current for the parent mass of the ion from the total MS ion chromatogram using a 1.5 Da tolerance window, and then integrated under the peak (FIGS. 12 and 14). […]
Occurences (FAP [3]),Percentage (FAP [3]),Substance,further results
,,Gelatin,digestion by FAP relative to collagen I (FAP [1]): ~10 fold; hydrolysis of FITC-quenched protein by FAP (FAP [1]; 100 μgs/ml protein substrate): readily hydrolyzed
2,0.95,"P.PGLAGPPGESGREGAPGAEGSPGRD.G: FAP cleavage fragment, 100 kDa recombinant human gelatin",
2,0.95,"P.PGPAGAPGDKGESGP.S: FAP cleavage fragment, 100 kDa recombinant human gelatin",
2,0.95,"P.QGFQGPPGEPGEPGASGP.M: FAP cleavage fragment, 100 kDa recombinant human gelatin",
3,1.43,"P.QGVRGEPGPPGP.A: FAP cleavage fragment, 100 kDa recombinant human gelatin",
14,6.67,"P.RGPPGSAGAPGKDGLNGLPGP.I: FAP cleavage fragment, 100 kDa recombinant human gelatin",
4,1.90,"P.SGEPGKQGPSGASGERGPPGP.M: FAP cleavage fragment, 100 kDa recombinant human gelatin",
14,6.67,"P.SGNAGPPGPPGP.A: FAP cleavage fragment, 100 kDa recombinant human gelatin",
13,6.19,"P.TGARGAPGDRGEPGPPGP.A: FAP cleavage fragment, 100 kDa recombinant human gelatin",
3,1.43,"P.VGPPGPPGPP.G: FAP cleavage fragment, 100 kDa recombinant human gelatin",
3,1.43,"P.VGVQGPPGP.A: FAP cleavage fragment, 100 kDa recombinant human gelatin",
2,0.95,"V.GPPGPPGPP.G: FAP cleavage fragment, 100 kDa recombinant human gelatin",

Substance,Occurences (FAP [3]),Percentage (FAP [3]),further results
"P.AGKDGEAGAQGPPGP.A: FAP cleavage fragment of 100 kDa and 8.5 kDa recombinant human gelatin, MH+ 1308.62 (PAGKDGEAGAQGPPGPA)",2,0.95,relative abundance of fragment by integrated ion current (FAP [2]): most abundantly identified fragment; Normalized Ion Current (FAP [2]): 234.8
"P.AGQDGRPGPPGPPGARGQAG.V: FAP cleavage fragment of 100 kDa and 8.5 kDa recombinant human gelatin, MH+ 1799.89",1,0.48,Normalized Ion Current (FAP [2]): 1.0
"P.KGAAGEPGKAGERGVPGPPGAVGP.A: FAP cleavage fragment of 100 kDa and 8.5 kDa recombinant human gelatin, MH+ 2113.12",5,2.38,Normalized Ion Current (FAP [2]): 46.8
"P.VGPPGPPGPPGPPGPP.: C-terminal FAP cleavage fragment, 100 kDa recombinant human gelatin (PVGPPGPPGPPGPPGPP)",19,9.05,relative abundance of fragment by integrated ion current (FAP [3]): most abundantly identified fragment
